Reference: paper PMC7263513 (bioRxiv, 2020)

B1: C128 (antibody, V domains shown)
VH: EVQLLESGGGLVQPGGSLRLSCAASGFTFSTYAMSWVRQAPGKGLEWVSTITGSGRDTYYADSVKGRFTISRDNSKNTLFLQLNSLRAEDAAVYSCANHPLASGDDYYHYYMDVWGKGTTVTVSS
VL: EIVLTQSPGTLSLSPGERATLSCRASQSVNSRQLAWYQQKPGQAPRLLIYGASSRATGIPERFSGSGSGTDFTLTISRLESEDFAVYHCQQYGSSRALTFGGGTKVEIK
B2: C139 (antibody, V domains shown)
VH: EVQLVESGGGVVQPGRSLRLSCAASGFTFSSYAMHWVRQAPGKGLEWVAVISYDGSNKYSADSVKGRFTISRDNSKNTLYLQMNSLRAEDTAVYYCAKGGAYSYYYYMDVWGKGTTVTVSS
VL: not shown
B3: C126 (antibody, V domains shown)
VH: QVQLQESGPGLVKPSETLSLSCAVSGGSIGSYFWSWIRQPPGKGLEWIGYLHYSGSTNYNPSLKSRVTISVDTSKNQFSLKLSSVTAADTAVYYCARLQWLRGAFDIWGQGTMVTVSS
VL: NFMLTQPHSVSESPGKTVTISCTGSSGSIASNYVQWYQQRPGSAPTTVINEDNQRPSGVPDRFSGSIDSSSNSASLTISGLKTEDEADYYCQSYDSSNLVFGGGTKLTVL
B4: C141 (antibody, V domains shown)
VH: not shown
VL: NFMLTQPHSVSESPGKTVTISCTGSSGSIASNYVQWYQQRPGSAPTTVIYEDNQRPSGVPDRFSGSIDSSSNSASLTISGLKTEDEADYYCQSYDSSNWVFGGGTKLTVL
B5: C138 (antibody, V domains shown)
VH: EVQLVESGGGLVQPGGSLRLSCAASGFTFSTYWMSWVRQPPGKGLEWVANIKQDGSEKYYVDSVKGRFTISRDNAKNSLYLQMNSLRADDTAVYYCAGGTWLRSSFDYWGQGTLVTVSS
VL: NFMLTQPHSVSESPGKTVTISCTGSSGSIASNYVQWYQQRPGSAPTTVIYEDNQRPSGVPDRFSGSIDSSSNSASLTISGLKTEDEADYYCQSYDSSNWVFGGGTKLTVL
B6: C124 (antibody, V domains shown)
VH: EVQLVESGGGLVQPGGSLRLSCAASGFTFSGYSMNWVRQAPGKGPEWVSYISRSSSTIYYADSVKGRFTISRDNAKNSLYLQMNSLRDEDTAVYYCAREGARVGATYDTYYFDYWGQGTLVTVSS
VL: EIVLTQSPATLSLSPGERATLSCRASQSFSSYLAWYQQKPGQAPRLLIYDASNRATGIPARFSGSGSGTDFTLTISSLEPEDFAVYYCQQRNNWPPEWTFGQGTKVEIK
B7: C118 (antibody, V domains shown)
VH: QVQLVESGGGVVQPGRSLRLSCAASGFTFSNYAMHWVRQAPGKGLEWVAVISYDGSNKYYADSVKGRFTISRDNSKNTLYLQMNSLRAEDTAIYYCASGYTGYDYFVRGDYYGLDVWGQGTTVTVSS
VL: QPVLTQSPSASASLGASVKLTCTLSSGHSSYAIAWHQQQPEKGPRYLMKLNTDGSHSKGDGIPDRFSGSSSGAERYLTISSLQSEDEADYYCQTWGTGILVFGGGTKLTVL
B8: C120 (antibody, V domains shown)
VH: EVQLVESGGGLIQPGGSLRLSCAASGFTVSSNYMTWVRQAPGKGLEWVSLIYPGGSTYYADSVKGRFTISRDNSKNTLYLQMNSLRAEDTAVYYCAREGMGMAAAGTWGQGTLVTVSS
VL: AIRMTQSPSSLSASVGDTVTITCQASQDISKYLNWYQQKPGKAPKLLIYDASNLETGVPSRFSGSGSGTDFTFTISSLQPEDIATYYCQQYDNLPQTFGGGTKVEIK
B9: C122 (antibody, V domains shown)
VH: EVQLVESGGGLIQPGGSLRLSCAASGLTVSSNYMSWVRQAPGKGLEWVSVLYSGGSSFYADSVKGRFTISRDNSKNTLYLQMNSLRAEDTAVYYCARESGDTTMAFDYWGQGTLVTVSS
VL: DIQLTQSPSFLSASVGDRVTITCRASQGISSYLAWYQQKPGKAPKLLIYAASTLQSGVPSRFSGSGSGTEFTLTISSLQPEDFATYYCQQLNSDSYTFGQGTKLEIK
B10: C140 (antibody, V domains shown)
VH: EVQLVESGGGLVQPGGSLRLSCAASGVTVSSNYMSWVRQAPGKGLEWVSLIYSGGSTFYADSVKGRFTISRDNSENTLYLQMNTLRAEDTAVYYCARDLYYYGMDVWGQGTTVTVSS
VL: DIQLTQSPSFLSASVGDRVTITCRASQGISSYLAWYQQKPGKAPKLLIYAASTLQSGVPSRFSGSGSGTEFTLTISSLQPEDFATYYCQQLNSYSYTFGQGTKLEIK
B11: C123 (antibody, V domains shown)
VH: EVQLVESGGGLIQPGGSLRLSCAASGVTVSRNYMSWVRQAPGKGLEWVSVIYSGGSTYYADSVKGRFTISRDNSKNTLYLQMNSLRAEDTAVYYCARDLSAAFDIWGQGTMVTVSS
VL: DIQLTQSPSFLSASVGDRVTITCRASQGISSYLAWYQQKPGKAPKLLIYAASTLQSGVPSRFSGSGSGTEFTLTISSLQPEDFATYYCQQLNSYPPAFGQGTRLEIK
B12: C119 (antibody, V domains shown)
VH: QVQLVQSGAEVKKPGASVKVSCKASGYTFTSYYMHWVRQAPGQGLEWMGIINPSGGSTSYAQKLQGRVTMTRDTSTSTVYMELSSLRSEDTAVYYCARANHETTMDTYYYYYYMDVWGKGTTVTVSS
VL: QSALTQPASVSGSPGQSITISCTGTSSDVGGYKYVSWYQRHPGKAPKLMIYDVSNRPSGVSNRFSGSKSGNTASLTISGLQAEDEADYYCSSYTSSSTSVVFGGGTQLTVL
B13: C130 (antibody, V domains shown)
VH: QVQLVQSGAEVKKPGASVKVSCKASGYTFTNYYMHWVRQAPGQGLEWMGIINPSGGSTGYAQKFQGRVTMTRDTSTSTVYMELSSLRSEDTAVYYCARSRPTPDWYFDLWGRGTLVTVSS
VL: SYELTQPPSVSVAPGKTARITCGGNNIGSKSVHWYQQKPGQAPVLVIYYDSDRPSGIPERFSGSNSGNTATLTISRVEAGDEADYYCQVWDSSSDHPGVVFGGGTKLTVL
B14: C134 (antibody, V domains shown)
VH: EVQLLESGGGLVQPGGSLRLSCAASGFTFSNYAMSWVRQAPGKGLEWVSAISGSDGSTYYAGSVKGRFTISRDNSKNTLYLQMNSLRAEDTAVYYCAKDPLITGPTYQYFHYWGQGTLVTVSS
VL: SYELTQPPSVSVAPGKTARITCGGNNIGSKSVHWYQQKPGQAPVLVIYYDSDRPSGIPERFSGSNSGNTATLTISRVEAGDEAEYHCQVWDSSSDRPGVVFGGGTKLTVL
B15: C116 (antibody, V domains shown)
VH: QVQLVESGGGVVQPGRSLRLSCAASGFTYSTYAMHWVRQAPGKGLEWVAFISYDGSNKYYADSVKGRFTISRDNSKNTLYLQMNSLRAEDTAVYYCARDFYHNWFDPWGQGTLVTVSS
VL: NFMLTQPHSVSESPGKTVTISCTGSSGSIASNYVQWYQQRPGSAPTTVIYEDNQRPSGVPDRFSGSIDRSSNSASLTISGLKTEDEADYYCQSYDSGNHWVVFGGGTRLTVL
B16: C133 (antibody, V domains shown)
VH: QVQLVESGGGVVQPGRSLRLSCAASGFTFSSYAMHWVRQAPGKGLEWVAVILYDGSNKYYADSVKGRFTISRDNSKNTLYLQMNSLRAEDTAVYYCARDSDVDTSMVTWFDYWGQGTLVTVSS
VL: not shown
B17: C117 (antibody, V domains shown)
VH: QVQLVESGGGVVQPGRSLRLSCAASGFTFSTYAMHWVRQAPGEGLEWVAVISYDGSNTYYADSVKGRFTISRDNSKNTLYLQMNSLRAEDTAVYYCARDPIWFGELLSPPFVHFDYWGQGTLVTVSS
VL: QSVLTQPPSVSAAPGQKVTISCSGSSSNIGNNLVSWYQQLPGTAPKLLIYENNKRPSGIPDRFSGSKSGTSATLGITGLQTGDEADYYCGAWDSSLSAGGVYVFGTGTKVTVL
B18: C114 (antibody, V domains shown)
VH: QVQLVESGGGLIQPGGSLKLSCVVSGFTVSKNYISWVRQAPGKGLEWVSVIFAGGSTFYADSVKGRFAISRDNSNNTLFLQMNSLRVEDTAIYYCARGDGELFFDQWGQGTLVTVSS
VL: QSVLTQPPSVSGAPGQRVTISCTGTSSNIGAGYDVHWYQQLPGRAPKVLISGNNIRPSEVPDRFSGSRSGTSASLAITSLQPEDEAQYYCQSYDSSLYAVFGGGTKLTVL
B19: C121 (antibody, V domains shown)
VH: not shown
VL: QSALTQPASVSGSPGQSITISCTGTSSDVGSYNLVSWYQQHPGKAPKLMIYEGSKRPSGVSNRFSGSKSGNTASLTISGLQAEDEADYYCCSYAGSSTLVFGGGTKLTVL
B20: C132 (antibody, V domains shown)
VH: QVQLQESGPGLVKPSGTLSLTCAVSGGSISSNNWWSCVRQPPGKGLEWIGEIYHSGSTNYNPSLKSRVTISVDKSKNQFSLKLSSVTAADTAVYYCARGGDTAMGPEYFDYWGQGTLVTVSS
VL: QSALTQPASVSGSPGQSITISCTGTSSDVGGYNYVSWYQQHPGKAPKLMIYDVSNRPSGVSNRFSGSKSGNTASLTISGLQAEDEADYYCSSYTSSSTLLFGGGTKLTVL
B21: C115 (antibody, V domains shown)
VH: QVQLVESGGGLIKPGRSLRLSCTASGFTFGDYAMTWFRQAPGKGLEWVGFIRSKAYGGTTGYAASVKYRFTISRDDSKSIAYLQMDSLKTEDTAVYYCTRWDGWSQHDYWGQGTLVTVSS
VL: DIVMTQSPLSLSVTPGEPASISCRSSQSLLHSNGNNYFDWYLQKPGQSPQLLIYLGSNRASGVPDRFSGSGSGTDFTLKISRVEAEDVGVYYCMQVLQIPYTFGQGTKLEIK
B22: C131 (antibody, V domains shown)
VH: QVQLVQSGSEVKKPGSSVKVSCKASGGTFSSYAFSWVRQAPGQGLEWMGRIIPILALANYAQKFQGRVTITADKSTSTAYMELSSLRSEDTAVYYCARVNQAVTTPFSMDVWGQGTTVTVSS
VL: not shown

The binders below were run against SARS-CoV-2 receptor binding domain (RBD) (Severe acute respiratory syndrome …, UniProt P0DTC2) (assay: cell-based or functional assay).

First: B1
Second: B2
The “IC50 of neutralisation of SARS-CoV-2 pseudovirus (293T_(ACE2) cells)” value (“IC50” for short) of the first is lower: 0.101 µg/mL for the first, over 1 µg/mL for the second.

B3 and B4 cannot be ordered by “IC50” value: over 1 µg/mL for the first, over 1 µg/mL for the second.

Going from B5 to B6, the “IC50” value falls from over 1 µg/mL to 0.342 µg/mL.

First: B7
Second: B8
The “IC50” value of the first is 7.8-fold higher: 0.104 µg/mL for the first, 0.0133 µg/mL for the second.

B9 and B10 are within 1.5-fold of each other in “IC50” value: 0.0228 µg/mL for the first, 0.0239 µg/mL for the second.

First: B11
Second: B12
The “IC50” value of the first is 16-fold higher: 0.149 µg/mL for the first, 0.00912 µg/mL for the second.

B13 and B14 cannot be ordered by “IC50” value: over 1 µg/mL for the first, over 1 µg/mL for the second.

B15 and B16 cannot be ordered by “IC50” value: over 1 µg/mL for the first, over 1 µg/mL for the second.

Compared with B17, B18 is higher in “IC50” value: 0.348 µg/mL for the first, over 1 µg/mL for the second.

First: B19
Second: B20
The “IC50” value of the first is 110-fold lower: 0.00673 µg/mL for the first, 0.709 µg/mL for the second.

Compared with B21, B22 is 6.5-fold lower in “IC50” value: 0.198 µg/mL for the first, 0.0305 µg/mL for the second.
